Results published in patent US12391751B2, “Antibody against advanced glycation end products and use thereof” (Bloom Technology Corporation, priority 2018, dated 2025).

Experiments:
[1] = target: T1, reaction of the SJ-5 antibody with A-peak-BSA (Bos taurus, UniProt P02769); experiment: Cross-competition with HRP-labeled SJ-5 antibody by competitive ELISA (Example 33); type: binding; conditions: competitor antibody 0.049 to 50 μg/mL
T1 construct: made in house
Method: A solution of A-peak-BSA prepared into 1 μg/mL in a coating solution was added at 100 μL/well to a 96-well microtiter plate (Costar) and incubated overnight at 4° C.
Each well after the immobilization treatment was washed three times with a washing solution (300 μL), and PBS containing 0.05% Tween 20 (PBS-T) and containing 0.5% gelatin dissolved therein (200 μL) was added thereto and left standing at room temperature for 1 hour.
The PB-1 antibody, a mouse IgG isotype control (Ctrl-mIgG, Thermo Fisher Scientific Inc.), and the anti-GA-pyridine antibody 2A2 (Cosmo Bio Co., Ltd.) were each diluted with PBS-T containing 0.1% gelatin to prepare 4-fold dilution series (0.049 to 50 μg/mL). Also, a HRP-labeled SJ-5 antibody (Example 4) was diluted 10000-fold with PBS-T containing 0.1% gelatin.
Each well treated with the blocking solution was washed three times with a washing solution (300 μL), and the sample solutions of 4-fold dilution series (50 μL each) and the HRP-labeled SJ-5 antibody dilution solution (50 μL) were added thereto, stirred with a plate mixer for 2 minutes, and then incubated at room temperature for 1 hour. […]
Absorbance was measured at a dominant wavelength of 450 nm and a sub-wavelength of 650 nm with a microplate reader (Cytation 5, BioTek Instrument Inc.), and the absorbance at the sub-wavelength was subtracted from the absorbance at the dominant wavelength.

[2] = target: Fru-AGEs-BSA (Bos taurus, UniProt P02769); experiment: Specificity of PB-1 by competitive ELISA (Example 30); type: binding; conditions: A-peak-BSA or Glycer-AGEs-BSA immobilized, competitor 10 μg/mL, PB-1 0.05 μg/mL
Sequence of Fru-AGEs-BSA (P02769 25-607): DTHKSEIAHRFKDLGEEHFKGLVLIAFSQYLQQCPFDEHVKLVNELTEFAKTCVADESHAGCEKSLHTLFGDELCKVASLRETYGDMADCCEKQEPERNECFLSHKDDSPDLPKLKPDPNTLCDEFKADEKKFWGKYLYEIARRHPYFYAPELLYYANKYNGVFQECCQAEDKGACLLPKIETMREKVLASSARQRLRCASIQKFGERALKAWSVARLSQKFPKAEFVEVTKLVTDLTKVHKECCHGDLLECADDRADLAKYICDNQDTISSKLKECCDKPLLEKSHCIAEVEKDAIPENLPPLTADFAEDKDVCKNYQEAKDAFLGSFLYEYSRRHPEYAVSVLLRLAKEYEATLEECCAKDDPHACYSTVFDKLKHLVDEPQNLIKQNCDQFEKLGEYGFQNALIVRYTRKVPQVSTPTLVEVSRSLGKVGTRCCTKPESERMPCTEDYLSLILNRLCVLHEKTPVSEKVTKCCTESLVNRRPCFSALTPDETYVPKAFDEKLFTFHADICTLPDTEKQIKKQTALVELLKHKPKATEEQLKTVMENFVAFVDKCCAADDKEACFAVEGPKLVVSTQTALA
Method: A-peak-BSA or Glycer-AGEs-BSA prepared into a concentration of 1 μg/mL with a coating solution (Example 13) was added at 100 μL/well to a 96-well microtiter plate (Costar) and immobilized overnight at 4° C.
The plate was washed three times with PBS containing 0.05% (v/v) Tween 20 (PBS-T) and then blocked with PBS-T containing 0.5% (w/v) gelatin for 1 hour.
Bovine serum albumin (BSA), BSA containing AGEs derived from glucose (Glu-AGEs-BSA), BSA containing AGEs derived from fructose (Fru-AGEs-BSA), BSA containing AGEs derived from glycolaldehyde (Glycol-AGEs-BSA), BSA containing AGEs derived from glyceraldehyde (Glycer-AGEs-BSA), BSA containing NE-carboxyethyllysine (CEL-AGEs-BSA), BSA containing NE-carboxymethyllysine (CML-AGEs-BSA), BSA containing AGEs derived from glyoxal (GO-AGEs-BSA), BSA containing AGEs derived from methylglyoxal (MGO-AGEs-BSA), and A-peak-BSA diluted into 10 μg/mL with PBS-T containing 0.1% (w/v) gelatin were each added at 50 μL/well to the antigen-immobilized plate, and the PB-1 antibody diluted into 0.05 μg/mL with PBS-T containing 0.1% (w/v) gelatin was further added at 50 μL/well, stirred with a plate mixer, and then left standing at room temperature for 1 hour.
After washing, peroxidase-labeled anti-mouse IgG (H+L) polyclonal antibody, F(ab′)2 fragment (Kirkegaard & Perry Laboratories, Inc.) diluted into 0.05 μg/mL with PBS-T containing 0.1% (w/v) gelatin was added at 100 μL/well and left standing at room temperature for 1 hour.
After washing, ELISA POD substrate TMB kit (Nacalai Tesque, Inc.) was added at 100 μL/well and left standing at room temperature in the dark. Ten minutes later, color development was terminated by the addition of 2 N sulfuric acid (50 μL/well). Absorbance was measured at a dominant wavelength of 450 nm and a sub-wavelength of 650 nm with a microplate reader (Cytation 5, BioTek Instrument Inc.), and the absorbance at the sub-wavelength was subtracted from the absorbance at the dominant wavelength.
The ordinate of the graph depicts change in absorbance relative to that of control BSA defined as 1. When A-peak-BSA and Glycer-AGEs-BSA were immobilized, the novel monoclonal antibody PB-1 was also positive to Glycol-AGEs-BSA, Glycer-AGEs-BSA, and A-peak-BSA and negative to Glu-AGEs-BSA, Fru-AGEs-BSA, CEL-AGEs-BSA, CML-AGEs-BSA, GO-AGEs-BSA, and MGO-AGEs-BSA in terms of specificity.

T1 sequence (P02769 25-607): as above

B1: PB-1: mouse monoclonal antibody raised against A-peak-BSA; heavy-chain variable region SEQ ID NO 18, light-chain variable region SEQ ID NO 22 (antibody, listed as Mus musculus, V domains shown)
VH: EVRLQQSGPELVKPGTSVKISCKASGYSFTGYYMHWVKQSPVKSLEWIGRIIPYNGATSYNQNFKDKASLTVDKSSRTAYMDLHSLTSEDSAVYYCARSRYYGRAPYYFDYWGQGTTLTVSS
VL: DVVVTQTPLSLPVSLGDQASISCRSSQSIVHSNGNTYLEWYLQKPGQSPKLLIYKVSNRFSGVPDRISGSGSGTDFTLKISRVEAGDLGVYSCFQGSHVPFTFGSGTKLEIK
- change in absorbance of HRP-labeled SJ-5 binding to A-peak-BSA (cross-competition) [1]: decreased in a PB-1 concentration-dependent manner
- specificity: reactivity with Fru-AGEs-BSA [2]: negative
